Values quoted from earlier work as cited in article PMC3538140.

Biological target: TRAIL-R1 (Homo sapiens) (UniProt O00220)
Sequence of UniProt O00220 (O00220 24-468): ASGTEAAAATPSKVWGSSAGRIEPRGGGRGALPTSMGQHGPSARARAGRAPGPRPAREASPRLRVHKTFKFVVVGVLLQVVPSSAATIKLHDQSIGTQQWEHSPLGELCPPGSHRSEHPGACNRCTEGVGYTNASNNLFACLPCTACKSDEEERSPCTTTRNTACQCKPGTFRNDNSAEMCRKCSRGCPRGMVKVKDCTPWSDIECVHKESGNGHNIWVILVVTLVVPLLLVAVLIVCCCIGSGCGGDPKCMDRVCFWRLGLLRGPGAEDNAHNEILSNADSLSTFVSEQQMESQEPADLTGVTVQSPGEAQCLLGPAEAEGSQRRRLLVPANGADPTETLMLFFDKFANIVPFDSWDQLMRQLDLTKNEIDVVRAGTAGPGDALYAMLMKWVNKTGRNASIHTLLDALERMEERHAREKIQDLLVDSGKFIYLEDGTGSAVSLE

Kd: 70 nM
Substance: TRAIL (from UniProt P50591)
